What all share (test): cell_activity
In series [1] the test system is AAT 43-44x.58 meganuclease (synthetic construct (I-CreI derived)?). To be noted: PiZ mouse liver, AAV8 delivery with repair template.
The test system of series [2] is AAT 43-44L.105 meganuclease (synthetic construct (I-CreI derived)?). To be noted: PiZ mouse liver, AAV8 delivery with repair template.
Series [3] relates to AAT 43-44L.132 meganuclease (synthetic construct (I-CreI derived)?). To be noted: HEK293, 25 ng RNA.
Series [4] has as its system AAT 43-44L.47 meganuclease (synthetic construct (I-CreI derived)?). To be noted: HEK293, 25 ng RNA.
The test system of series [5] is AAT 43-44L.384 meganuclease (synthetic construct (I-CreI derived)?). To be noted: HEK293, 25 ng RNA.
Series [6] has as its system AAT 43-44L.276 meganuclease (synthetic construct (I-CreI derived)?). To be noted: HEK293, 25 ng RNA.
Series [7] relates to AAT 37-38L.158 meganuclease (synthetic construct (I-CreI derived)?). To be noted: HEK293, 25 ng RNA.
Series [8] has as its system AAT 37-38L.24 meganuclease (synthetic construct (I-CreI derived)?). To be noted: HEK293, 25 ng RNA.
The test system of series [9] is AAT 37-38L.175 meganuclease (synthetic construct (I-CreI derived)?). To be noted: HEK293, 25 ng RNA.
Series [10] concerns AAT 37-38x.61 meganuclease (synthetic construct (I-CreI derived)?). To be noted: Hep3B, day 6, 50 ng mRNA.
Series [11] concerns AAT 37-38L.262 meganuclease (synthetic construct (I-CreI derived)?). To be noted: PiZ mouse liver, LNP-A 0.5 mg/kg; 45% at low dose.
Series [12] has as its system AAT 37-38L.167 meganuclease (synthetic construct (I-CreI derived)?). To be noted: HEK293, 25 ng RNA.
The test system of series [13] is AAT 37-38x.50 meganuclease (synthetic construct (I-CreI derived)?). To be noted: PiZ mouse liver, AAV8 delivery with repair template.
The subject of series [14] is AAT 35-36x.70 meganuclease (synthetic construct (I-CreI derived)?). To be noted: PiZ mouse liver, scAAV repair (3.5% ssAAV).
Series [15] has as its system AAT 41-42L.153 meganuclease (synthetic construct (I-CreI derived)?). To be noted: HEK293, 25 ng RNA.
The test system of series [16] is AAT 41-42L.294 meganuclease (synthetic construct (I-CreI derived)?). To be noted: HEK293, 25 ng RNA.
Series [17] relates to AAT 41-42L.42 meganuclease (synthetic construct (I-CreI derived)?). To be noted: HEK293, 25 ng RNA.
In series [18] the test system is AAT 41-42L.185 meganuclease (synthetic construct (I-CreI derived)?). To be noted: HEK293, 25 ng RNA.
For series [19], the system named is AAT 41-42L.104 meganuclease (synthetic construct (I-CreI derived)?). To be noted: HEK293, 25 ng RNA.
For series [20], the system named is AAT 41-42x.32 meganuclease (synthetic construct (I-CreI derived)?). To be noted: Hep3B, day 6, 50 ng mRNA.
Series [21] deals with AAT 9-10x.311 meganuclease (synthetic construct (I-CreI derived)?). To be noted: PiZ mouse liver, AAV8; groups 1, 3, 4 (~10% in group 2); site highly methylated.
Series [22] deals with AAT 33-34x.13 meganuclease (synthetic construct (I-CreI derived)?). To be noted: PiZ mouse liver, ssAAV repair (11% scAAV).

With “AGGACCTAGATGTAGGATTCTG (double strand) [AAT 43-44 recognition sequence]”, the activity in series [1] is 3 % insertions; in series [2], 14 % insertions; in [3], 52 % indels; in [4], 52 % indels; in series [5], 26 % indels; in series [6] it was 16 % indels.

As for “CCCCACTTTGCACAACTGGGGA (double strand) [AAT 37-38 recognition sequence]”, the activity in series [7] was 90 % indels; in [8], 90 % indels; in series [9] it was 90 % indels; in series [10] it was 80 % indels; in [11] it was 53 % indels; in [12] it was 86 % indels. For the same sequence, in series [13], the activity was found to be 4 % insertions.

Consider “GGCCTGGTCACACTTGGGTTTA (double strand) [AAT 35-36 recognition sequence]”, for which the activity in series [14] was determined as 7.5 % insertions.

As for “TGAGGATCCTTGTGAGTGTTGG (double strand) [AAT 41-42 recognition sequence]”, the activity in series [15] is 50 % indels; in series [16], 40 % indels; in series [17], 77 % indels; in [18], 20 % indels; in series [19], 50 % indels; in series [20], 17 % indels.

The sequence “TGCCCGCTCACACCAGACCCTG (double strand) [AAT 9-10 recognition sequence]” showed an activity in [21] of 20 % indels.

On to “TTCAGACAGTTGCTCAACCTCT (double strand) [AAT 33-34 recognition sequence]”, for which the activity in series [22] came to 10 % insertions.

Values taken from US20240408235.
